Results published in patent US12460006B2, “Antibodies against integrin alpha 11 beta 1” (Momenta Pharmaceuticals, Inc., priority 2019, dated 2025).
Entries after “also recorded” stand apart in the source; their conditions may differ.

T1: α11β1 I Domain (Homo sapiens, UniProt Q9UKX5)
T1 sequence (Q9UKX5 164-345 limits assumed): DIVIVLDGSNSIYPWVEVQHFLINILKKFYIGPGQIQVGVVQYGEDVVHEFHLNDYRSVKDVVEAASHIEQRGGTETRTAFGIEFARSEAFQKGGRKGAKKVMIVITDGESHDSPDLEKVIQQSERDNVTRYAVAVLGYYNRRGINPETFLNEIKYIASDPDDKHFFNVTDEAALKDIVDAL


What was measured:
[1] = tested on: CHO cell lines expressing α11; assay: Collagen gel contraction assay; assay type: cell-based, human; conditions: for Inhibition of CHO-K1 gel contraction: Yes/No; for inhibition of CHO-hu α11-mediated collagen gel contraction: vs untreated
Procedure: 24-well plates were blocked with 2% BSA in PBS overnight at 37° C. The following day, the plates were washed 3 times with PBS before being used in the assay. Human CHO cell lines expressing α11 were harvested and resuspended at 1.25×10^6 in ExpiCHO Expression Medium (Gibco™ Cat #A2910002). The collagen gel solution was prepared by diluting 3 mg/mL stock collagen type I (Gibco™ Collagen I Rat Protein, Tail Cat #A1048301) to 1 mg/mL in the media containing the CHO cells. Sodium hydroxide was added to the solution to neutralize the pH and 400 μL of the collagen solution was added to each well of the 24-well plates. For the wells where the antibodies were included in the collagen gel solution, CHO cells were prepared at 2.5×10^6 and the antibodies were prepared at 2× final concentration in ExpiCHO media. The cells and antibodies were then combined 1:1 before the addition of the stock collagen type 1. The gels were allowed to polymerize for 60 minutes at 37° C. Antibodies were added to the ExpiCHO media, which was then layered on top of the polymerized gel (400 μL/well). The gels were incubated for 6 days at 37° C. before gel contraction was quantified. Images of each well were analyzed using Image J and gel contraction was determined as a percentage of the initial gel area.
Selected exemplary antibodies were tested for the ability to inhibit cell-mediated 3D gel contraction because this ability is directly linked to the functionality of the exemplary antibodies.

[2] = tested on: CHO-K1 cells expressing human α11; assay: Cell adhesion inhibition (xCelligence), type I collagen; assay type: cell-based; conditions: for inhibition of cell adhesion to type I collagen: CHO-K1 hu α11 cells; for Inhibition of CHO-K1 adhesion to collagen: Yes/No
How it was run: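 CHO-K1 cells expressing human α11 (0.6×10^6 cells/mL) were preincubated with mAbs across a concentration range for 20 min at 37° C, then seeded on wells coated with 100 ng/mL type I collagen and blocked with 3% BSA. Impedance-based adhesion was recorded over 6 h, and maximum adhesion was compared with untreated control.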

[3] = tested on: Human Pulmonary Fibroblasts; assay: Fibroblast-to-Myofibroblasts Transition (FMT), αSMA expression; assay type: cell-based; conditions: for inhibition of αSMA expression / FMT: TGFβ-induced FMT; for Inhibition of FMT: Yes/No
How it was run: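 Cells seeded at 20,000/well, serum-starved 24 h, then given TGFβ-1 with or without anti-α11 antibodies for 48 h; polyclonal anti-α11 and isotype IgG served as controls. Fixed, permeabilized cells were stained for αSMA and analysed by flow cytometry (single-cell gMFI). Values are normalized to untreated control as % inhibition.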

[4] = biological target: human α11β1 (Homo sapiens, UniProt Q9UKX5); assay: ELISA binding to recombinant human α11β1; conditions: binding Yes/No
Chain of human α11β1 (Q9UKX5 23-1141 limits assumed): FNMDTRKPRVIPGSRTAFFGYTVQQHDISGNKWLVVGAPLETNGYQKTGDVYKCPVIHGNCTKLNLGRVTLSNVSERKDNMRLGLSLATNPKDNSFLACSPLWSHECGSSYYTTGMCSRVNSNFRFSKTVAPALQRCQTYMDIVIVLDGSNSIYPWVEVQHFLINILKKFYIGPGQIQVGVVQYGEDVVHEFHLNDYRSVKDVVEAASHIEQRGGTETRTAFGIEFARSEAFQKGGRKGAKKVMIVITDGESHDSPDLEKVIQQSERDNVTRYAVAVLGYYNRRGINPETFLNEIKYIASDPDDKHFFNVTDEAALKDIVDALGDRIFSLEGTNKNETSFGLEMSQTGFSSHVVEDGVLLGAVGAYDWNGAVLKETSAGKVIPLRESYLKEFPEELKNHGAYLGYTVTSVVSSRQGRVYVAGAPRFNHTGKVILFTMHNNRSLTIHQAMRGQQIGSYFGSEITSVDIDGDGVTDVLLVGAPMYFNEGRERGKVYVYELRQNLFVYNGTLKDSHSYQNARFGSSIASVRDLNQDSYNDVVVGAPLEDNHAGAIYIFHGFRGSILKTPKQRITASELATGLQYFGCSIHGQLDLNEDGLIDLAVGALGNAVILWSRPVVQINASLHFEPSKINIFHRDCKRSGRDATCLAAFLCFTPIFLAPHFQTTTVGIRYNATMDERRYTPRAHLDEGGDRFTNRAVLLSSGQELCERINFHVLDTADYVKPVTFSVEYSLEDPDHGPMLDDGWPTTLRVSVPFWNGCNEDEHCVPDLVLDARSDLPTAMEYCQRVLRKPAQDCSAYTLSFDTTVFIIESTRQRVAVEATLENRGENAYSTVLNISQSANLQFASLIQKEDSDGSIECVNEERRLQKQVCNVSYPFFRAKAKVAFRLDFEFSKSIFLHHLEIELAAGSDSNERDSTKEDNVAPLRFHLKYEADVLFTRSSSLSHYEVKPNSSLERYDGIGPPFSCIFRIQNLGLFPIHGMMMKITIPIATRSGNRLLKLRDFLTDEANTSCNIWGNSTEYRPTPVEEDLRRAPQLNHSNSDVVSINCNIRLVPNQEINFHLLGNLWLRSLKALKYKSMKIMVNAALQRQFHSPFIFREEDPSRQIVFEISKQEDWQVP
Chain of human α11β1 (P05556 21-728 partner limits assumed): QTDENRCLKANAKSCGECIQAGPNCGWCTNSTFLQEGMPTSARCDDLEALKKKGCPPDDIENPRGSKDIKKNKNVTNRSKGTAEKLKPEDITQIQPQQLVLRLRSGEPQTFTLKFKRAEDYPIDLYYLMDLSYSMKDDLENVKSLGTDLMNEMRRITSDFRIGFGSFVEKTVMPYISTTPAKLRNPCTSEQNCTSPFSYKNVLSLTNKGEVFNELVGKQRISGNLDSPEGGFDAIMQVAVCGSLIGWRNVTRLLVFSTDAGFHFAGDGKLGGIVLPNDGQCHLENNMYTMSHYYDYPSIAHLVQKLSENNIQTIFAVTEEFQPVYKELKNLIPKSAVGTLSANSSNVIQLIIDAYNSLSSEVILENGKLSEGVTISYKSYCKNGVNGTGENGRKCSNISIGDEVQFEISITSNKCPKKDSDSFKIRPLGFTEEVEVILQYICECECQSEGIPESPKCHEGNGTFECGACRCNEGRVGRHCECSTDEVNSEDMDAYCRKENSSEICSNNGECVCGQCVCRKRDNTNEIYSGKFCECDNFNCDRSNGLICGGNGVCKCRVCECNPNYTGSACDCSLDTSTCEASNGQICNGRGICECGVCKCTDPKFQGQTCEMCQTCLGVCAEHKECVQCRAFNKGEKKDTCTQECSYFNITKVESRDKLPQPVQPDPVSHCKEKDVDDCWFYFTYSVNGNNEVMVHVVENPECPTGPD
How it was run: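 Absorbance at 450 nm measured binding of serially diluted antibodies to immobilized α11β1 (human or mouse, coated at 0.25 μg/mL). Antibodies were incubated 1 h at room temperature, then detected with biotinylated anti-IgG, streptavidin-HRP and TMB substrate.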

[5] = biological target: T1, α11β1 I Domain; assay: SPR binding to α11β1 I Domain; conditions: SPR data
Procedure: The affinity of antibodies for human α11β1 was measured by surface plasmon resonance assay (SPR). Affinity was measured at pH 7.6 and 25° C. with a Biacore T200 instrument. Anti-HIS antibody was immobilized on the SPR sensor surface using EDC/NHS covalent attachment. HIS-tagged human α11β1 was captured on the sensor surface and a single-cycle kinetics assay was used. Increasing concentrations of test antibody were injected in series over the sensor-bound α11β1. Dissociation was monitored for 1000 seconds. A sensor surface with only anti-HIS antibody and a series of blank injections were used to double-reference subtract the data. A 1:1 Langmuir model was fit to the data to estimate the kinetic association and dissociation constants. The affinity (equilibrium dissociation constant) of the interaction was calculated by dividing the kinetic dissociation constant by the kinetic association constant. Between injection cycles α11β1 and bound antibody were removed with an injection of 10 mM glycine at pH 1.5.
The binding affinity of antibodies for the α11β1 Headpiece and α11β1 I Domain as measured by SPR is shown in FIG. 10A and FIG. 10B, respectively.

Molecule	Inhibition of CHO-K1 gel contraction [1]	inhibition of CHO-hu α11-mediated collagen gel contraction [1]	inhibition of cell adhesion to type I collagen [2]	Inhibition of CHO-K1 adhesion to collagen [2]	inhibition of αSMA expression / FMT [3]	Inhibition of FMT [3]	Human α11β1 ELISA [4]	binding to the I domain of α11β1 [5]
9-G05: mouse anti-α11β1 mAb; VH SEQ ID NO: 103, VL SEQ ID NO: 104 (antibody, V domains shown) VH: EVQLQQSGPELVKPGASVKIPCKASGYTFPDYNMDWVKQSHGKSLEWIGYINPDNGGTIYNQKFKGKATLTVDKSSSTAYMELRSLTSEDTAVYYCARLDSSGYGYYAMDYWGQGTSVTVSS VL: DIVLTQSPASLAVSLGQRATISCRASESVDNYGISFMHWYQQKPGQPPKLLIYRASNLDSEIPARFSGSGSRTDFTLTIDPVETDDVATYYCQQSYKDPRTFGGGTKLEIK	Yes	inhibited CHO-hu α11-mediated collagen gel contraction	significantly blocked cell adhesion; also recorded: decrease cell adhesion	Yes	FMT inhibitors	Yes	Yes	do bind
9-B11: mouse anti-α11β1 mAb; VH SEQ ID NO: 115, VL SEQ ID NO: 116 (antibody, V domains shown) VH: QVQLQQPGAELVRPGTSVKLSCKASGYTFTSYWMHWVQQRPGQGLEWIGVIDPSDSYTNYNQKFKGKATLTVDTSSSSAYMQLSSLTSEDSAVYYCARDDVAMDYWGQGTSVTVSS VL: DIVVTQSPASLAVSLGQRATISCRASESVDSYGNSFIHWYQQKPGQPPKLLIYRASNLKSGIPARFSGSGSRTDFTLTINPVEADDVATYYCQQSNEDPYTFGGGTKLEIK	No	–	–	Yes	–	Yes	Yes	–
16G7: rabbit anti-α11β1 mAb; heavy chain SEQ ID NO: 159, light chain SEQ ID NO: 160 (antibody) heavy: METGLRWLLLVAVFKGVQCQEQLVESGGDLVKPGASLTLTCTASGFSFNKNYWMCWVRQAPGKGLEWIGCIYNGDGNTYYASWVNGRFTISKTSSTTVTLQMTSLTVADTAIYFCARLLNMWGPGTLVTVSSGQPKAPSVFPLAPCCGDTPSSTVTLGCLVKGYLPEPVTVTWNSGTLTNGVRTFPSVRQSSGLYSLSSVVSVTSSSQPVTCNVAHPATNTKVDKTVAPSTCSKPMCPPPELPGGPSVFIFPPKPKDTLMISRTPEVTCVVVDVSQDDPEVQFTWYINNEQVRTARPPLREQQFNSTIRVVSTLPIAHQDWLRGKEFKCKVHNKALPAPIEKTISKARGQPLEPKVYTMGPPREELSSRSVSLTCMINGFYPSDISVEWEKNGKAEDNYKTTPTVLDSDGSYFLYSKLSVPTSEWQRGDVFTCSVMHEALHNHYTQKSISRSPGK light: MDTRAPTQLLGLLLLWLPGARCADIVMTQTPASVEAAVGGTVTIKCQASESIGNALAWYQQKPGQPPKLLIYTAATLASGVPSRFSGSGSGTEFTLTISGVQCDDAATYYCQSYYFTSVSSYGNAFGGGTEVVVKGDPVAPTVLIFPPAADQVATGTVTIVCVANKYFPDVTVTWEVDGTTQTTGIENSKTPQNSADCTYNLSSTLTLTSTQYNSHKEYTCKVTQGTTSVVQSFNRGDC	No	–	didn't have an effect on cell adhesion	No	inhibit FMT	Yes	Yes	–
24E4G6: rat anti-α11β1 mAb; VH SEQ ID NO: 147, VL SEQ ID NO: 148 (antibody, V domains shown) VH: MELELSLIFIFSLLKDVQCEVQLVESGGSLVQPGGSLKLSCVASGYTFSNYWMDWVRQSPGKSLEWIGEINTDGRRTNYAPSIKDRFTISRDNAKSTLYLQMSNVKSDDTAIYYCTILRVYPHYFDYWGQGVMVTVSS VL: MMSPAQFLFLLMLWIQEARGDVVMTQTPPSLSVAIGQSVSISCKSSQSLVYSDGETYLHWFLQSPGRSPKRLIYHVSNLGSGVPDRFSGTGSLTDFTLRISRVEAEDLGVYYCAQTTHFPPTFGAGTKLELK	Yes	–	nor did it inhibit cell adhesion	No	significantly inhibited αSMA expression	Yes	Yes	–
16E10: rabbit anti-α11β1 mAb; heavy chain SEQ ID NO: 161, light chain SEQ ID NO: 162 (antibody) heavy: METGLRWLLLVAVLKGVQCQSLEESGGDLVKPGASLTLTCRVSGFSFSSSYYMCWVRQAPGKGLEWIACIGTTRGSTYYATWAKGRFTISKISSTTVTLQMTSLTDADTATYFCARDATGYRINTIGLYFNLWGPGTLVTVSSGQPKAPSVFPLAPCCGDTPSSTVTLGCLVKGYLPEPVTVTWNSGTLTNGVRTFPSVRQSSGLYSLSSVVSVTSSSQPVTCNVAHPATNTKVDKTVAPSTCSKPMCPPPELPGGPSVFIFPPKPKDTLMISRTPEVTCVVVDVSQDDPEVQFTWYINNEQVRTARPPLREQQFNSTIRVVSTLPIAHQDWLRGKEFKCKVHNKALPAPIEKTISKARGQPLEPKVYTMGPPREELSSRSVSLTCMINGFYPSDISVEWEKNGKAEDNYKTTPTVLDSDGSYFLYSKLSVPTSEWQRGDVFTCSVMHEALHNHYTQKSISRSPGK light: MDTRAPTQLLGLLLLWLPGARCAFELTQTPSSVEAAVGGTPTIKCQASQTIYSYLSWYQQKPGQPPKLLIYEASKLASGVPSRFSGSGSGTDYTLTISDLECADAATYYCQSYHGTASTEYNTFGGGTEVVVRGDPVAPTVLIFPPAADQVATGTVTIVCVANKYFPDVTVTWEVDGTTQTTGIENSKTPQNSADCTYNLSSTLTLTSTQYNSHKEYTCKVTQGTTSVVQSFNRGDC	Yes	inhibited CHO-hu α11-mediated collagen gel contraction	inhibit both ligand binding and FMT	Yes	inhibit both ligand binding and FMT	Yes	Yes	do not bind
79E3E3: rat anti-α11β1 mAb; VH SEQ ID NO: 145, VL SEQ ID NO: 146 (antibody, V domains shown) VH: MDWLWNLLFLMVVAQSAQAQIQLVQSGPEVKKPGESVKISCKASGYTFTDYAMNWVKQAPGNGLKWMGWINTQTGKPTYADDFKQRFVFSLETSARTTYLQINNLNIEDTATYFCTRLGTGNTKGFAYWGQGTLVTVSS VL: MESQTHVLISLLLCVSGTCGDILINQSPASLTVSAGERVTMSCKSSQSLLYSENNQDYLAWYQQKPGQFPKLLIYGASNRHTGVPDRFTGSGSGTDFTLTISSVQAEDLADYYCEQTYRYPFTFGSGTKLEIK	Yes	inhibited CHO-hu α11-mediated collagen gel contraction	strongly inhibited cell adhesion	Yes	failed to decrease αSMA expression	No	Yes	do bind
